Test results as given in paper PMC9426499.

Tested on: ParRB(pJIR4165) (Clostridium perfringens plasmid pJIR4165)
Test: SPR

| Sequence | binding signal |
| --- | --- |
| TAGTATATATCTAGTATATACTAAATTTAT / ATAAATTTAGTATATACTAGATATATACTACCTACCCTACGTCCTCCTGC [parCB B21] | 377 RU |
| TCACTATATGTATATACTGAATATATACAT / ATGTATATATTCAGTATATACATATAGTGACCTACCCTACGTCCTCCTGC [parCB B2] | 383 RU |
| AGGTATAAACTCAGTATATACATGATTGAA / TTCAATCATGTATATACTGAGTTTATACCTCCTACCCTACGTCCTCCTGC [parCB B17] | 368 RU |
| TTTATTAATTTCACTATATGTATATACTGA / TCAGTATATACATATAGTGAAATTAATAAACCTACCCTACGTCCTCCTGC [parCB B1] | 58 RU |

Tested on: ParRC(pCW3) (Clostridium perfringens plasmid pCW3)
Test: SPR

| Sequence | binding signal |
| --- | --- |
| AATATAAAAACATAAACATCACAATTTTAC / GTAAAATTGTGATGTTTATGTTTTTATATTCCTACCCTACGTCCTCCTGC [parCC C11] | 154 RU |
| CATAAACATCACAATTTTACGTAATTTAGA / TCTAAATTACGTAAAATTGTGATGTTTATGCCTACCCTACGTCCTCCTGC [parCC C12] | 348 RU |
| GTAATTTAGATTTTGCAAGTAAAAAACATC / GATGTTTTTTACTTGCAAAATCTAAATTACCCTACCCTACGTCCTCCTGC [parCC C14] | 42 RU |
| AAAAAACATCACAATTTTACATAATAGAAA / TTTCTATTATGTAAAATTGTGATGTTTTTTCCTACCCTACGTCCTCCTGC [parCC C16] | 311 RU |
| AAAATGAAAAAAACATCACAATTTTACGGA / TCCGTAAAATTGTGATGTTTTTTTCATTTTCCTACCCTACGTCCTCCTGC [parCC C5] | 249 RU |
| ACAATTTTACGTAATTTAGATTTTGCAAGT / ACTTGCAAAATCTAAATTACGTAAAATTGTCCTACCCTACGTCCTCCTGC [parCC C13] | 48 RU |
| AAACATCACAATTTTACGGAAAATGCTTGA / TCAAGCATTTTCCGTAAAATTGTGATGTTTCCTACCCTACGTCCTCCTGC [parCC C6] | 282 RU |
| ATCACAATTTTACGTAATGACAGTTTGTTG / CAACAAACTGTCATTACGTAAAATTGTGATCCTACCCTACGTCCTCCTGC [parCC C2] | 54 RU |
| AATTAAAAACATCACAATTTTACGTAATGA / TCATTACGTAAAATTGTGATGTTTTTAATTCCTACCCTACGTCCTCCTGC [parCC C1] | 256 RU |
| TTTTGCAAGTAAAAAACATCACAATTTTAC / GTAAAATTGTGATGTTTTTTACTTGCAAAACCTACCCTACGTCCTCCTGC [parCC C15] | 217 RU |
| ATTTTACGGAAAATGCTTGATTTAGATTGA / TCAATCTAAATCAAGCATTTTCCGTAAAATCCTACCCTACGTCCTCCTGC [parCC C7] | 9 RU |
| TTTATTAATTTCACTATATGTATATACTGA / TCAGTATATACATATAGTGAAATTAATAAACCTACCCTACGTCCTCCTGC [parCB B1] | -2.8 RU |

Tested on: ParRD(pJIR3118) (Clostridium perfringens plasmid pJIR3118 (CN1020 gDNA))
Test: SPR

| Sequence | binding signal |
| --- | --- |
| AAATAATATCAAATAATATTATTTAATGTC / GACATTAAATAATATTATTTGATATTATTTCCTACCCTACGTCCTCCTGC [parCD D4] | 232 RU |
| GAATAATATTAAATAATATCAAATAATATT / AATATTATTTGATATTATTTAATATTATTCCCTACCCTACGTCCTCCTGC [parCD D3] | 225 RU |
| ACATTAAAAGATACTAATTAATATTATTTA / TAAATAATATTAATTAGTATCTTTTAATGTCCTACCCTACGTCCTCCTGC [parCD D12] | 250 RU |
| AGGTTATTTAATGTTAAATGATATTAAATA / TATTTAATATCATTTAACATTAAATAACCTCCTACCCTACGTCCTCCTGC [parCD D9] | 213 RU |
| ATGTTAAATGATATTAAATAACATTAAAAG / CTTTTAATGTTATTTAATATCATTTAACATCCTACCCTACGTCCTCCTGC [parCD D10] | 270 RU |
| ATATTAAATAACATTAAAAGATACTAATTA / TAATTAGTATCTTTTAATGTTATTTAATATCCTACCCTACGTCCTCCTGC [parCD D11] | 236 RU |
| ATACTAATTAATATTATTTAATTATTGACT / AGTCAATAATTAAATAATATTAATTAGTATCCTACCCTACGTCCTCCTGC [parCD D13] | 187 RU |
| TTTATTAATTTCACTATATGTATATACTGA / TCAGTATATACATATAGTGAAATTAATAAACCTACCCTACGTCCTCCTGC [parCB B1] | 1.1 RU |
